Experimental data taken from the supplement of paper PMC7932537, “Quantitative profiling of protease specificity” (PLoS Computational Biology, 2021).
± gives the uncertainty stated by the source.

What was measured:
MMP-2 catalytic domain = MMP-2 catalytic domain (UniProt P08253); test: kcat/KM (M-1 s-1); higher = more efficient cleavage by the protease
Protocol: (§1)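 Catalytic efficiency (kcat/KM) of synthetic peptides carrying hexamer sequences taken from MMP-2/9 substrate phage selections. Cleavage was measured with recombinant human MMP-2 or MMP-9 catalytic domains (expressed in HEK293, APMA-activated, active-site titrated with GM6001), in triplicate, as described in the authors' ref 27.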

MMP-9 catalytic domain = MMP-9 catalytic domain (UniProt P14780); test: as above
Sequence of MMP-9 catalytic domain (P14780 whole entry, the tested form may be a part): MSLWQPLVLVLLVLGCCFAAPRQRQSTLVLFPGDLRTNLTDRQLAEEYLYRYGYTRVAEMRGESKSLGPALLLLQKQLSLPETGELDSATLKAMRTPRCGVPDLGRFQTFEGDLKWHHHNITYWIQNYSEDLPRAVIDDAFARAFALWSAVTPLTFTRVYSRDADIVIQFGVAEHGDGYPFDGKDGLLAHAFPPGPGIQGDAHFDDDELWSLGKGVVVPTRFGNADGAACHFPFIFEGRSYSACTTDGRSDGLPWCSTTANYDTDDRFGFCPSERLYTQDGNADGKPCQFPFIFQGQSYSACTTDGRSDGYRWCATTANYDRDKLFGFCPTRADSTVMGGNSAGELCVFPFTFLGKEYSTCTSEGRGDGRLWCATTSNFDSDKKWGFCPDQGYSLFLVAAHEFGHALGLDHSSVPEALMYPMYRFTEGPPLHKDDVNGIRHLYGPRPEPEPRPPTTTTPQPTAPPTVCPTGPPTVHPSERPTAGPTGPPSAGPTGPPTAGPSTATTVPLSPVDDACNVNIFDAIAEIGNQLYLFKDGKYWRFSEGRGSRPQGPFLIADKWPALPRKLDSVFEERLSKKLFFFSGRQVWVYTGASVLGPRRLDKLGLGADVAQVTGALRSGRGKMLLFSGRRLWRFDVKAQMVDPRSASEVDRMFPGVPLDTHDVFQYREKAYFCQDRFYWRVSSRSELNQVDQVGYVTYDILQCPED
Protocol: as §1

Sequence of MMP-2 catalytic domain (P08253 whole entry, looked up, the tested form may be a part): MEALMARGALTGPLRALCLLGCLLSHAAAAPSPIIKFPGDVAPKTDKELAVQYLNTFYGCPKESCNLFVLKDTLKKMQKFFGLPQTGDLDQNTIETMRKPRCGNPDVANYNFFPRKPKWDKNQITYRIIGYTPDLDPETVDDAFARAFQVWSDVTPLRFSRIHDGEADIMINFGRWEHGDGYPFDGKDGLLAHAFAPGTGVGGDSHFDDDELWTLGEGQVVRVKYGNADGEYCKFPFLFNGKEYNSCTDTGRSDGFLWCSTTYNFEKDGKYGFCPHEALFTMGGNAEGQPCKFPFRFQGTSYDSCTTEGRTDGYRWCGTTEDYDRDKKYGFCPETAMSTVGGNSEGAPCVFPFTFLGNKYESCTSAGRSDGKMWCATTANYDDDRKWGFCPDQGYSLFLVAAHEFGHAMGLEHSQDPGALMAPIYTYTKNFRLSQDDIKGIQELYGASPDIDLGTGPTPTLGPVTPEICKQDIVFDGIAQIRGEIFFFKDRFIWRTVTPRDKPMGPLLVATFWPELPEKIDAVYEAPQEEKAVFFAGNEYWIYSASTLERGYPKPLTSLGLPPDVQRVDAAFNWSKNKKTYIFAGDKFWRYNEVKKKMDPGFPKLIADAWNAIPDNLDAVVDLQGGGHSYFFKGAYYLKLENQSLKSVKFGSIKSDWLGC

Substance | kcat/KM (MMP-2 catalytic domain) | kcat/KM (MMP-9 catalytic domain)
PEGLQG | 33700 ± 1200 | 19900 ± 590
DGPVSF | 22200 ± 940 | 9530 ± 160
NVARPM | 23900 ± 1000 | 27000 ± 2400
SPMAFS | 18400 ± 250 | 11400 ± 440
SAAQPL | 12900 ± 340 | 11600 ± 400
PAPNSL | 87800 ± 14000 | 49000 ± 6600
KSPSRL | 182000 ± 45000 | 140000 ± 4400
DRKPKA | 0 | 0
PIQLQS | 10300 ± 350 | 11900 ± 320
GPKGFR | 88300 ± 4700 | 34000 ± 2300
PVNMTD | 15700 ± 290 | 9420 ± 660
GPHGYK | 16400 ± 670 | 22100 ± 340
TAPSSQ | 141600 ± 1200 | 45100 ± 8000
PMDIHA | 15300 ± 280 | 46000 ± 1400
VSALSS | 24900 ± 1200 | 7040 ± 190
MSPANI | 188000 ± 23000 | 94700 ± 7900
QSPINL | 31000 ± 750 | 61100 ± 2800
QQPQAL | 46800 ± 2300 | 70100 ± 2900
PYGIKG | 54400 ± 2400 | 51400 ± 2200
PKALPY | 31000 ± 590 | 37300 ± 1400
PSNMEG | 92000 ± 14000 | 50100 ± 8300
QPLEIR | 28400 ± 1100 | 45100 ± 1200
ARHYKS | 15840 ± 130 | 25200 ± 1700
QPPLPL | 15400 ± 1400 | 18700 ± 350
PHPRLL | 30700 ± 650 | 75300 ± 11000
PRGVKG | 58000 ± 1400 | 62100 ± 850
RMMREL | 25300 ± 650 | 9020 ± 390

Substance | kcat/KM (MMP-2 catalytic domain) | kcat/KM (MMP-9 catalytic domain)
GPAGIR | 181000 ± 96000 | 49830 ± 250
GPRYLM | 30900 ± 11000 | 37800 ± 1800
TQPKAM | 54700 ± 1400 | 106000 ± 4800
PQPEGL | 53800 ± 2400 | 48400 ± 2200
GPRGLK | 125000 ± 5300 | 71030 ± 710
PGPAGQ | 154000 ± 23000 | 59800 ± 2100
PVAIPM | 7030 ± 260 | 12400 ± 760
NPMPIR | 22600 ± 6500 | 21200 ± 1300
HPVSMV | 32100 ± 18000 | 8720 ± 330
PEPAAL | 104000 ± 6400 | 89400 ± 9500
SIPLPL | 15100 ± 430 | 22400 ± 340
KSPLRQ | 6570 ± 450 | 34600 ± 230
DSPQNL | 56400 ± 5200 | 37200 ± 4900
SRPAEF | 98800 ± 35000 | 16400 ± 740
RRPRPL | 25000 ± 850 | 38200 ± 2100
QQPSRL | 259000 ± 29000 | 94300 ± 1600
PVGMKG | 60400 ± 1200 | 64000 ± 7200
INPQGL | 114000 ± 14000 | 74100 ± 8200
GPEGMK | 9100 ± 920 | 3600 ± 320
PYEWHS | 5850 ± 600 | 26000 ± 1200
GQPMNL | 51400 ± 4300 | 90600 ± 8800
PQGLAG | 37400 ± 1300 | 40400 ± 1100
MRPVGH | 39300 ± 3400 | 31800 ± 2600
QGPAAI | 92100 ± 1800 | 72300 ± 1400
PMALMD | 15300 ± 440 | 36900 ± 3300
AHNLSS | 16400 ± 620 | 9130 ± 640
PKGYQG | 48000 ± 2700 | 85700 ± 1400

Now from value to substance:

kcat/KM (MMP-2 catalytic domain) | kcat/KM (MMP-9 catalytic domain) | Substance
88100 ± 10000 | 46200 ± 2100 | NRPNNL
46500 ± 1900 | 66100 ± 4700 | KSPQSY
43200 ± 4200 | 97100 ± 7900 | IRPKHF
32300 ± 2800 | 55200 ± 2700 | PQPLDL
51800 ± 1300 | 15200 ± 610 | PAGVKA
12600 ± 210 | 17500 ± 760 | GPALSY
70600 ± 3700 | 18600 ± 1600 | PSPADI
37600 ± 1600 | 84500 ± 2000 | KPVNMT
34600 ± 650 | 54200 ± 4300 | PHGYKG
45700 ± 960 | 3730 ± 120 | IPLASL
8910 ± 670 | 15500 ± 1100 | GEPFEL
115000 ± 20000 | 41000 ± 7100 | TTPSPI
79700 ± 8500 | 64400 ± 1800 | SPPAAI
27000 ± 1000 | 28700 ± 860 | PGPIGW
16300 ± 2800 | 12500 ± 270 | PHGLAT
7230 ± 110 | 2680 ± 64 | EPVSLA
47700 ± 3300 | 43200 ± 580 | EVPQAL
12300 ± 2000 | 33200 ± 5000 | PLRQIG
39700 ± 1900 | 26200 ± 1600 | GPARPY
34300 ± 940 | 33900 ± 3000 | VHPSAV
21300 ± 500 | 16500 ± 1300 | RPEDLR
22800 ± 800 | 38500 ± 1900 | PGPIGI
10000 ± 190 | 24900 ± 1200 | PLQLQT

kcat/KM (MMP-2 catalytic domain) | kcat/KM (MMP-9 catalytic domain) | Substance
35900 ± 2400 | 69100 ± 1900 | PTPKAL
69800 ± 46000 | 43700 ± 2600 | GKPVSM
133000 ± 23000 | 55400 ± 2200 | EGPAGL
19700 ± 660 | 7950 ± 380 | ETPRPW
48000 ± 960 | 52200 ± 3000 | GEPRGQ
26000 ± 290 | 7420 ± 290 | PAQLHV
1390 ± 1400 | 896 ± 900 | PRGFSH
18000 ± 700 | 48900 ± 1900 | VEPLKF
107000 ± 13000 | 21100 ± 1300 | TPAAMT
13400 ± 1100 | 17000 ± 880 | PRPQAA
27700 ± 1800 | 16200 ± 1600 | VPQEWR
23800 ± 1000 | 51700 ± 1400 | PHNILS
34400 ± 940 | 33400 ± 740 | APALWI
15000 ± 600 | 18400 ± 730 | KSPVGV
9900 ± 730 | 23900 ± 850 | PRPFHH
35600 ± 560 | 20300 ± 620 | NPQNIR
42400 ± 1700 | 45900 ± 2300 | LPKPLR
36800 ± 970 | 11600 ± 180 | WPSPFR
62600 ± 6300 | 109000 ± 7600 | KSPQAM
64800 ± 3000 | 73000 ± 9100 | MGPLGQ
17700 ± 940 | 18900 ± 2200 | EPKPLL
10000 ± 610 | 46100 ± 1800 | LSPFGQ
51200 ± 2200 | 45500 ± 5000 | PQPSEL
